This note sets out measurements from the Immune Epitope Database (IEDB).

For this assay, the target named is HLA-A*02:01. The experiment in a line: IEDB peptide-MHC binding, purified MHC/competitive/radioactivity; ≥ and ≤ were set here for values at or beyond the usual limits of such assays. Conditions: source organism: Vaccinia virus WR.
As for RVNVFETRI, the half-inhibitory concentration (IC50) – broadly, the concentration at which inhibition is half-maximal – was 1960 nM.
As to KLLLWFNYL, the IC50 came to 2 nM.
The result for IMYTYFSNT reads 57 nM; that for RTLDTAIFT, 3430 nM.
For the sequence NLLLWPLYV, the IC50 was found to be 0.12 nM.
For the sequence ITLSLSKQDI, the IC50 came out at 211 nM.
With VLLTYFCFV, the IC50 was 0.28 nM.
As for LILSCIFAFI, the IC50 came to 18 nM.
Take RQIFIHYSV: the half-inhibitory concentration (IC50) is 0.65 nM.
With KTMAVTYEL, the IC50 came out at 0.4 nM.
The result for SMSSYDFST reads 0.34 nM.
Under SMVISLLSMI stands 79 nM; under FIDSYLQKL, 24 nM; under GTYAVNIHV, 33 nM.
On to VVYSTCTVPT, for which the IC50 was 2320 nM.
Regarding FLSRLVLYA, the IC50 is 0.075 nM.
Consider SIDQKKSYV, for which the IC50 turned out to be 188 nM.
Turning to SMMNRDKIPI, the IC50 stood at 1360 nM.
Under IAMENLKAML stands 674 nM; under AIFTDASTV, 697 nM; under NVFKYLTSV, 0.75 nM.
Take IIIPFIAYFV: the half-maximal inhibitory concentration (IC50) turned out to be 1.2 nM.
On to FIISVISLV, for which the IC50 stood at 0.91 nM.
Turning to ETYHLIDYET, the IC50 turned out to be 3180 nM.
As to ELVRYIELV, the IC50 is 291 nM.
As for DAIIDIEPDL, the IC50 was 2270 nM.
The result for IIFFIVLILL reads 201 nM; that for LLYILRYIV, 138 nM.
As for LMDSIFVST, the IC50 was determined as 0.72 nM.
As to AVISKVTYSL, the IC50 was 4770 nM.
As to SLEATYHIII, the IC50 came to 4980 nM.
The result for YANNDKFRL reads 587 nM.
Take YLLPGFVLT: the IC50 was 5.7 nM.
In the case of LLSLLVIWI, the IC50 turned out to be 148 nM.
The result for LMYDIINSV reads 1.8 nM; that for FLSYISDTV, 0.54 nM.
On to FIEHLGEGI, for which the IC50 was 4820 nM.
For LTNVVNIST, the half-maximal inhibitory concentration (IC50) was determined as 3980 nM.
Take FLRYLLFGI: the IC50 turned out to be 2.5 nM.
Take VLITWLIDYV: the IC50 stood at 0.8 nM.
On to ITNGYLISI, for which the IC50 stood at 54 nM.
Take LMIEYNLLT: the IC50 turned out to be 1.5 nM.
Take KLHLISLLSL: the IC50 came to 97 nM.
For the sequence YLDFLLLLLI, the IC50 came out at 18 nM.
Regarding RIDMIDNLNI, the IC50 is 2550 nM.
RLHKECLLRL: the IC50 amounted to 447 nM.
Take YLFGGFSTL: the IC50 came to 0.87 nM.
Under FAVQTIVFI stands 96 nM; under RLNPEVSYFT, 128 nM; under RTVIHLEWLL, 134 nM.
Under SILISLTNEI stands 283 nM.
Under YTDSIQDLL stands 933 nM; under RLYDLTRYA, 4 nM; under ILTLDIFYL, 1.3 nM.
DMMSLNLTIV: the IC50 stood at 2850 nM.
Under SIRLELVNLI stands 2170 nM.
For the sequence YLVIYLNRT, the half-maximal inhibitory concentration (IC50) was 819 nM.
On to YLLAVCGCI, for which the IC50 stood at 13 nM.
On to SMICLSLILA, for which the IC50 was 101 nM.
Take KLVDICDRI: the IC50 stood at 6.9 nM.
Under ELVFIKPPLI stands 3300 nM; under SMIGLCACV, 2 nM; under MISRHCCIL, 1030 nM.
Regarding YQDSDVSQEV, the half-maximal inhibitory concentration (IC50) was found to be 12 nM.
As for FIKPPLITL, the concentration for half-maximal inhibition (IC50) stood at 373 nM.
On to LITLTNVVNI, for which the IC50 turned out to be 1060 nM.
As for MIDDSIEGI, the concentration for half-maximal inhibition (IC50) came out at 210 nM.
Consider YISELYNKPL, for which the IC50 came out at 626 nM.
For the sequence ILSPPINAPI, the IC50 came out at 38 nM.
For FTYYPTNKL, the IC50 was determined as 1730 nM.
As for NTFYLFTFTI, the IC50 came to 55 nM.
For the sequence LLHVFQEYRL, the IC50 amounted to 27 nM.
For the sequence LTFWQIDYL, the concentration for half-maximal inhibition (IC50) was determined as 7.3 nM.
The result for NLVKLSSYHV reads 1420 nM; that for RLKSSQTIEL, 338 nM.
On to LLSQYLSRV, for which the IC50 amounted to 1 nM.
Under VTLLCVLPAV stands 3.8 nM; under VVLDATNDGL, 1450 nM; under SLDSLVHLL, 3.3 nM.
As for LLFFLALSI, the IC50 was 26 nM.
For GLYYQGSCYI, the IC50 was 5.1 nM.
Take RLESYHRFDM: the IC50 was 3330 nM.
Take HISIKVKNHI: the IC50 was 280 nM.
Regarding EVGIKSVVV, the IC50 is 123 nM.
In the case of NIHSEMYSL, the 50% inhibitory concentration (IC50) came to 580 nM.
On to LLLDYMTST, for which the IC50 amounted to 7 nM.
As to HIFYQLANV, the IC50 was determined as 5.8 nM.
The result for MIYGLIACL reads 8.5 nM; that for QTANVVFRYM, 729 nM; that for LLFDRDTFYI, 0.4 nM.
As for PVNAINDRL, the IC50 worked out at 3460 nM.
For ALVASLNPNM, the IC50 worked out at 1330 nM.
Under KTFKDESIFI stands 93 nM; under AIMESDSFL, 173 nM.
